Assay results: US20250312444A1 (BEIJING TUO JIE BIOPHARMACEUTICAL, published 2025)

Experiments:
rat RXFP1 receptor = molecular target: T1, rat RXFP1 receptor (rat, UniProt Q6R6I6 1-758); assay: cell-based or functional assay
T1 sequence (looked up): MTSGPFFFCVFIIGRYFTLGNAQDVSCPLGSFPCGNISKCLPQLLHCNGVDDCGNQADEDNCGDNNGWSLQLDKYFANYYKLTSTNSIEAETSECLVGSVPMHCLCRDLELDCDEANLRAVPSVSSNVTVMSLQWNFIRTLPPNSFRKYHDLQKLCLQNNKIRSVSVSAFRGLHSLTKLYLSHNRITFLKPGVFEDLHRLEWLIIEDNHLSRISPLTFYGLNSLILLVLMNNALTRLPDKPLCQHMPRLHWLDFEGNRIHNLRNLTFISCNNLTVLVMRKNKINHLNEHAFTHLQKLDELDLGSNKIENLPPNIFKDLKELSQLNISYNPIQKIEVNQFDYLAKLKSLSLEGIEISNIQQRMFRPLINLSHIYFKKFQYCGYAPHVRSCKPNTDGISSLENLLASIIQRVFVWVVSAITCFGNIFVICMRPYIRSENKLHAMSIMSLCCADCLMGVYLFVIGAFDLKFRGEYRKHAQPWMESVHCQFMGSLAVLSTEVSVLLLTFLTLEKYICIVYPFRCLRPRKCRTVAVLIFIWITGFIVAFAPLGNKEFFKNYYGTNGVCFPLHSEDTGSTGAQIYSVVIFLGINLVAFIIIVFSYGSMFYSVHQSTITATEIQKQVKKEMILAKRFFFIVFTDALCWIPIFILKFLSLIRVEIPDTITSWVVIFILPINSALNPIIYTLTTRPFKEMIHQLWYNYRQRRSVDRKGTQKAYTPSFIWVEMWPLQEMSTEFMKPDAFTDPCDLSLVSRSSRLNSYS

mouse RXFP1 receptor = molecular target: T2, mouse RXFP1 receptor (mouse, UniProt Q6R6I7 1-758); assay: cell-based or functional assay
T2 sequence (looked up): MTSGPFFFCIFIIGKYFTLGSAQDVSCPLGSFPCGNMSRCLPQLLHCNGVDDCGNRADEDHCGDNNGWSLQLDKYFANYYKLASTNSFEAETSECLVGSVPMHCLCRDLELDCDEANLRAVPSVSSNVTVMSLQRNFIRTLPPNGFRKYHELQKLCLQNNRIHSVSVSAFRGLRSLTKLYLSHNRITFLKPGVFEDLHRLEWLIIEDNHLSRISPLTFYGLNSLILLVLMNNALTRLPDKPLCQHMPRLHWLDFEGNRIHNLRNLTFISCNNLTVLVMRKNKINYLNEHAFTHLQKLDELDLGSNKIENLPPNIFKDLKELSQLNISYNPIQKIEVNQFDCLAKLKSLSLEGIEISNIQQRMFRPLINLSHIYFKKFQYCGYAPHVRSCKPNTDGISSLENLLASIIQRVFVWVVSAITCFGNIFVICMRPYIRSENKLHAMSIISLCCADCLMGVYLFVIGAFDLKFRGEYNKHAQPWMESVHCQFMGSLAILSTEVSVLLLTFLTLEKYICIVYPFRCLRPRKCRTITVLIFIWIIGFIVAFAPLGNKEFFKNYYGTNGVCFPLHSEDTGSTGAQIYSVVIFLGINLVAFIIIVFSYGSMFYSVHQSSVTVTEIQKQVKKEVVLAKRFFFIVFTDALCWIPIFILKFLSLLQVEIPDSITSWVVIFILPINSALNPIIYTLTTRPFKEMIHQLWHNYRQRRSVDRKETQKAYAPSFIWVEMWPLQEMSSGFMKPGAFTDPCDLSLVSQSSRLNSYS

[1] = molecular target: human serum albumin (HSA) (human); assay: SPR Biacore T200, fusion protein captured by anti-VHH antibody, albumin as analyte
Experimental: (§1) Coupling of an anti-VHH antibody (MonoRab™ Rabbit Anti-Camelid VHH Cocktail, Genescript, Cat No. A02014) to an S series CM5 sensor chip (GE, Cat No. 29-1049-88) was performed using an amino coupling kit (GE, Cat No. BR-1000-50). The antibody was diluted to 10 μg/mL with 10 mM sodium acetate (pH 4.5) (GE, Cat No. BR-1003-50). After the CM5 chip was activated with EDC/NHS, the diluted anti-VHH antibody was flowed over the chip to reach a surface response value of about 5000 RU, and then the chip was blocked with ethanolamine for later use.
(§2) The albumin from each species was serially diluted in a gradient with 1XHBS-EP (10 mM HEPES, pH 7.4, 150 mM NaCl, 3 mM EDTA, 0.05% Surfactant P20). The test fusion protein molecule was captured using the anti-VHH antibody-coupled chip, with a response value of about 30 RU. Then, different concentrations of serum albumin were flowed over the surface of the chip for 3 min at a flow rate of 50 μL/min, with a dissociation time of 1-10 min (the dissociation time varied depending on the species of albumin). After the end of each cycle, the chip was regenerated using 10 mM glycine-hydrochloric acid (pH 1.5) (GE, Cat No. BR-1003-54). The reaction signals were detected in real-time using Biacore T200 (GE) to obtain the association and dissociation curves, and the data obtained were fitted with a Langmuir 1:1 binding model using the BIAevaluation version 4.1 software at appropriate concentration points to obtain the affinity values.

rat serum albumin = molecular target: T3, rat serum albumin (rat); assay: as above
T3 chain: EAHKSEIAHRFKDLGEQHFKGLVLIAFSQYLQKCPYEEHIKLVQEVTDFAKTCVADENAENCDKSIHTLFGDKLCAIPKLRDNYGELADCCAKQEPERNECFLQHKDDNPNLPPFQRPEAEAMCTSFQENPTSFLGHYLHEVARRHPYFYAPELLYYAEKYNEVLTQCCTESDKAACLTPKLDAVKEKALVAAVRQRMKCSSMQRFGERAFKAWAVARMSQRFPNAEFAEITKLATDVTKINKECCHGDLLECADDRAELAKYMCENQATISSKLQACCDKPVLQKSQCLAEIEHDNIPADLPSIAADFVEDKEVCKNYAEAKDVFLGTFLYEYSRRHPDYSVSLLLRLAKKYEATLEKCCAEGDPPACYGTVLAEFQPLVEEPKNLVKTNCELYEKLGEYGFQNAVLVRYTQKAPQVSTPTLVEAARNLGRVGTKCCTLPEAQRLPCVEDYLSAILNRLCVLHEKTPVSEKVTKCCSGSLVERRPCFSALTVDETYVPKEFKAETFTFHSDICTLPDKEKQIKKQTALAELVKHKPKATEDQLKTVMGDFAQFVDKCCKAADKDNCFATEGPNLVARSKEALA
Experimental: as §1, §2

B1: 0051 (other)
chain: EVQLLESGGGLVQPGGSLRLSCAASGFTFLTSCMGWFRQAPGKEREGVSSIYTVGGSTFYTNSVKGRFTISRDNSKNTLYLQMNSLRAEDTAVYYCAAGSPARCRLRDPTTFDYWGQGTLVTVSSGGGGQGGGGQGGGGQGGGGQGGGGQSWMEEVIKLCGRELVRAQIAICGMSTWSGGGSGGSGGGQLYSALANKCCHVGCTKRSLARFC
notes: Single-chain fusion: anti-HSA VHH, linker, relaxin-2 B chain, linker, relaxin-2 A chain; also called fusion protein 0051; molecule 0051
EC50 (nM), cAMP production in CHO-K1 cells with receptor overexpression (rat RXFP1 receptor): 21.1 nM | EC50 (nM), cAMP production in CHO-K1 cells with receptor overexpression (mouse RXFP1 receptor): 21.7 nM | Kd [1]: 20.2 nM | koff [1]: 0.0011 s⁻¹ | kon [1]: 54500 M⁻¹ s⁻¹ | Kd (rat serum albumin): 156 nM | koff (rat serum albumin): 0.00581 s⁻¹ | kon (rat serum albumin): 37200 M⁻¹ s⁻¹
